Reference: patent US20180086829A1 (published 2018)
Read-outs that look alike come from different tables or passages of the source.

Experiments:
Assay in all cases: ELISA
human LILRB4 [1] = target: T1, human LILRB4 (UniProt Q8NHJ6 22-259)
human LILRB4 [2] = target: T1, human LILRB4; remark: listed apart in the source
human LILRB4 [3] = target: T1, human LILRB4; remark: listed apart in the source

T1 sequence (Q8NHJ6 22-259): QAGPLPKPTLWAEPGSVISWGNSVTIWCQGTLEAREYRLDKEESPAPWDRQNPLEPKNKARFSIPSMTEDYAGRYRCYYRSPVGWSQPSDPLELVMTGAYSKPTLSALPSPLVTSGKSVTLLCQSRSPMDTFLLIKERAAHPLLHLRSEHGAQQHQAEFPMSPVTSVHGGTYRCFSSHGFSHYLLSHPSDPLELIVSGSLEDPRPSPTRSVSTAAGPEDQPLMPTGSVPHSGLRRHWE

B1: anti-LILRB4 rabbit monoclonal antibody #161-2 (antibody, V domains shown)
VH: QSVKESGGRLVTPGTPLTLTCTVSGIDLSVYLMSWVRHSPGKGLEYIGFINSAGITAYATWAKGRFIISKTSTTVDLKVTSPTTEDTATYFCARNWIRLDLWGQGTLVTISS
VL: TQTPASVSAAVGGTVTISCQSSETIYKNYLSWFQQKPGQPPKLLIYESSKLASGVPSRFSGSGSGTQFTLTISDVQCDDAATYYCLGGYTDGRDTIFGGGTEVEIK
With B1 the EC50 (human LILRB4 [1]) was 0.0126 µg/mL.

B2: anti-LILRB4 rabbit monoclonal antibody #78 (antibody, V domains shown)
VH: QSLQESGGRLVTPGTPLTLTCTVSGIDLSVYLMSWVRQSPGKGLEYIGFINSAGITAYATWAKGRFIISKTSTTVDLKVTSPTTEDTATYFCARNWIRLDLWGQGTLVTISS
VL: ELVLTQTPASVSAAVGGTVTISCQSSESIYKNYLSWFQQKPGQPPKLLIYETSKLASGVPSRFSGSGSGTQFTLTISDVQCDDAATYYCLGGYTNGRDTIFGGGTELEIK
Binder B2 has an EC50 (human LILRB4 [2]) of 0.0121 µg/mL.

B3: anti-LILRB4 rabbit monoclonal antibody #161-1 (antibody, V domains shown)
VH: QSVKESGGRLVTPGTPLTLTCTVSGIDLSVYLMSWVRHSPGKGLEYIGFINSAGITAYATWAKGRFIISKTSTTVDLKVTSPTTEDTATYFCARNWIRLDLWGQGTLVTISS
VL: ELDLTQTPASVSAAVGGTVTISCQSSETIYKNYLSWFQQKPGQPPKLLIYESSKLASGVPSRFSGSGSGTQFTLTISDVQCDDAATYYCLGGYTDGRDTIFGGGTELEIK
With B3 the EC50 (human LILRB4 [3]) was 0.0104 µg/mL.

B4: anti-LILRB4 rabbit monoclonal antibody #192 (antibody, V domains shown)
VH: EQSLEESGGGLVTPGGTLTLTCTVSGFSLSNNAMSWVRQAPGKGLEWIGVILLAGPTYYASWAKGRFTISKTSTTVDLKITSPTTEDTATYFCAIAIGSRPFALWGQGTLVTISS
VL: ELVLTQTPSSTSAAVGGTVTINCQSSQSVYSNWLSWFQQKPGQPPKPLIYLASTLASGVPSRFSGSGSGTQFTLTISDVQCDDAATYYCQGGYNGNIYTFGGGTEVVVK
In the case of B4, the EC50 (human LILRB4 [3]) is reported as 0.021 µg/mL.

B5: anti-LILRB4 rabbit monoclonal antibody #208 (antibody, V domains shown)
VH: EQSVEESGGGLVTPGGTLTLTCTVSGFSLSNNAMSWVRQAPGKGLEWIGVILLSGTTYYASWAKGRFTISKTSTTVDLKITSPTTEDTATYFCAIAIGSRPFALWGQGTLVTISS
VL: ELVMTQTPSSTSAAVGGTVTINCQSSQSVYSNWLSWFQQKPGQPPKPLIYLASTLASGVPSRFSGSGSGTQFTLTISDVQCDDAATYYCQGGYNGNIYTFGGGTEVVVK
With B5 the EC50 (human LILRB4 [1]) was 0.0198 µg/mL.

B6: anti-LILRB4 rabbit monoclonal antibody #120 (antibody, V domains shown)
VH: QSLEESGGRLVTPGTPLTLTCTVSGIDLNKYAMTWVRQAPGKGLEYIGFINIVGIAGYATWAKGRFTISKTSTTVDLKVTSPTTEDTATYFCARNWIRLDLWGQGTLVTVSS
VL: ELDLTQTPASVSAAVGGTVTISCQSSESLYKKNYLSWFQQKPGQPPKLLIFEASKLASGVPSRFSGSGSGTQFTLTISDVQCDDAASYYCLGDYTNGRDTTFGGGTEVVVK
Work on B6 yielded an EC50 (human LILRB4 [2]) of 0.0119 µg/mL.
